For one assay, the target named is T1, VEGFR3 IgD3-4 (UniProt P35916 219-415, limits assumed).
T1 construct: domain: IgD3-4; also called VEGFR3-ED Ig D3-4-myc; not shown: myc tag (pCMV6-XL6-myc vector)
T1 sequence (looked up): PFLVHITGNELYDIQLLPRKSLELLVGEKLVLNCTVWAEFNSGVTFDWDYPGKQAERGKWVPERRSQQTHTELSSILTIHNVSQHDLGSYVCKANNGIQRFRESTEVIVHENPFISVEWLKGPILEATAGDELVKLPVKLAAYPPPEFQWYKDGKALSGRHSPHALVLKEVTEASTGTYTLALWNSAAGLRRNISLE
Kind of assay: native gel electrophoresis and immunoblot. (In general: Immunoblotting shows a protein as a band on a membrane.)

In another assay the target is T2, R2-IgD4-5 (human, UniProt P35968).
T2 construct: recombinant fragment; also called immunoglobin-like domains 4-5 of VEGFR2
T2 sequence (P35968 328-548 limits assumed): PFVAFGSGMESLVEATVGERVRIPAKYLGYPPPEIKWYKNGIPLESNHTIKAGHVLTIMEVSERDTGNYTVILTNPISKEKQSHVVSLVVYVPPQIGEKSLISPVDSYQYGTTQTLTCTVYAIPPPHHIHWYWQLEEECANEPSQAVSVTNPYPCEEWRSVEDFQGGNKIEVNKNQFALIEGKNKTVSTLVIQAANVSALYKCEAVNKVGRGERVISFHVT
Kind of assay: cell-based competitive ELISA: R2C9-11 absorbed with the soluble domains, then bound to fixed 293T/VEGFR2 cells, OD405. How it is done: The optimal concentration of R2C7-1 and R2C9-11 mAbs (200 μg/mL and 50 μg/mL, respectively) were absorbed with the designated doses of the individual immunoglobin-like domains of VEGFR2 (R2-IgDs) antigens. After, the fixed 293T/VEGFR2 cells were incubated with the absorbed antibodies at 37° C. for 30 min. The bound antibodies were probed with goat-anti-mouse IgG conjugated with HRP, visualized by addition of ABTS, and measured at OD₄₀₅ using the SpectraMax microplate reader. Data are represented as means±S.D. of the percentage of isotype control (CTL) in triplicate. The potential epitope locations of R2C7-1 (upper) and R2C9-11 (lower) on the VEGFR2 antigen are indicated by black lines spanning IgD6 and IgD7 in the schematics.
To define the recognition epitopes of R2C7-1 and R2C9-11 antibodies, cell-based competitive enzyme-linked immunosorbent assay (ELISA) was performed. HEK293T/VEGFR2 transfectants (5 X×10⁴/well) were coated and fixed on 96-well plates. The optimal concentrations, the highest concentration of the log phase, of R2C7-1 and R2C9-11 antibodies for binding to the cells, were determined using a standard ELISA procedure (data not shown). […]
The epitopes of R2C7-1 and R2C9-11 anti-VEGFR2 antibodies were determined by cell-based competitive ELISA. […]
In general terms: ELISA stands for enzyme-linked immunosorbent assay.

Another assay has as its target T3, R3-IgD7 (human, UniProt P35916).
T3 construct: recombinant fragment; also called immunoglobin-like domain 7 of VEGFR3
T3 sequence (receptor fragment, looked up): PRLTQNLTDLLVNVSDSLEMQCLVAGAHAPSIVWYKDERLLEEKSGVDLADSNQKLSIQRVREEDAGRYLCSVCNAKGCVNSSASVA
Kind of assay: cell-based competitive ELISA: R2C9-11 absorbed with the soluble domain, then bound to 293T/VEGFR3 cells, OD405. The protocol: (§1) Panel A, Cell-based competitive. ELISA. HEK293T cells expressing VEGFR3 (293T/VEGFR3) were coated in 96-well plates. The optimal concentrations of R2C7-1 and R2C9-11 mAbs were determined as described previously (data now shown). The optimal concentrations of R2C7-1 and R2C9-11 mAbs were absorbed with the designed doses of the individual immunoglobin-like domains of VEGFR3 (R3-IgDs) antigens, as indicated. The bound antibodies were immune-probed with secondary antibody conjugated with HRP, visualized by addition of ABTS, and measured at OD₄₀₅ using a microplate reader (SpectraMax). Data are represented as means±S.D. of percentage of isotype control (CTL) in triplicate. The epitope locations of R2C7-1 and R2C9-11 on the VEGFR3 antigen are indicated by the black lines spanning IgD6 in the schematics. Panel B, Native gel electrophoresis. The whole extracellular domain (R3-IgD1-7), domain 3-4 (R3-IgD3-4) and domain 6-7 (R3-IgD6-7) were constructed, expressed in the E. coli, and purified using the anti-Myc affinity purification system. The purity and molecular weight of each recombinant protein were visualized with a standard Western blot using anti-Myc antibody as probe (left). The binding of R2C7-1 and R2C9-11 to the VEGFR3 truncated antigens was evaluated with native gel electrophoresis to confirm the epitopes of R2C7-1 and R2C9-11 mAbs (middle and right, respectively).
(§2) The same methodology was adopted to define the epitopes of the antibodies on VEGFR3. To determine the optimal concentrations of the antibodies for VEGFR3, HEK293T/VEGFR3 transfectants were used as targets (data not shown). Subsequently, the antibodies with optimal concentrations were absorbed with individual recombinant extracellular domains of VEGFR3 (R3-IgDs) for competing the binding epitopes. Similarly, their major epitopes were both located in IgD6, but not in IgD7, of VEGFR3. To conform this finding, Western blotting analysis of different recombinant IgD proteins was carried out using native gel electrophoresis.

The target of assay [1] is T4, VEGFR3 IgD5 (individual recombinant immunoglobin-like domain 5 of VEGFR3) (UniProt P35916 422-552, limits assumed).
T4 construct: domain: IgD5
T4 sequence (looked up): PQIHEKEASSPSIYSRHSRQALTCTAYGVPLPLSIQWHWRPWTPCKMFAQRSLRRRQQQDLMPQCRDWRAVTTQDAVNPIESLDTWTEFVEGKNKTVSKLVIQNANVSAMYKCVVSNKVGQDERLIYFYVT
The assay is described as above. How it is done: as §1, §2

Another assay deals with T5, R3-IgD4 (human, UniProt P35916).
T5 construct: recombinant fragment; also called immunoglobin-like domain 4 of VEGFR3
T5 sequence (receptor fragment, looked up): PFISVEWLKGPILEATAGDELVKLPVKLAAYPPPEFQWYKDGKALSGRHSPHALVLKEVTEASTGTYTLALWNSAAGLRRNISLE
Described as above. The protocol:
as §1, §2

B1: R2C7-1 monoclonal antibody (antibody, V domains shown)
VH: EVQLQQSGPELVKPGASVKISCKASGYSFTDYFINWVIQRHGKSLEWVGRINPYNGGSFYNQKFKDKATLTVDKSSNIAHMELRSLASEDSAIYYCARSGGNGYDYWGQGTTLTVSS
VL: DIVMTQAAPSVPVIPGESVSISCRSSKSLLHSNGNTYLYWFLQRPGQSPQLLIYRMSNLASGVPDRFSGSGSGTAFTLRISRVEAEDVGVYYCMQHLEYPYTFGGGTKVEIK
notes: Mouse monoclonal antibody purified from hybridoma supernatant; An IgG2a isotype antibody served as its control; also called R2C7-1 mAb
Take B1: in the assay with VEGFR3 IgD3-4, the binding result was “no binding”.

B2: R2C9-11 monoclonal antibody (antibody, V domains shown)
VH: QVQLQQPGAELVKPGASVKLSCKASGYTFTSYWMHWVKQRPGQGLEWIGEINPSNGRTNYNEKFKSKATLTVDKSSSTAYMQLSSLTSEDSAVYYCANLYFDVWGAGTTVTVSS
VL: DIVMTQSPSSLSVSAGEKVTMSCKSSQNLLNSGNQKYYLAWYQQKPGQPPKLLIYGASIRESGVPDRFIGSGSGTDFTLTISSVQAEDLAVYFCQSDHSYPYTFGGGTKLEIK
notes: Mouse monoclonal antibody purified from hybridoma supernatant; An IgG2a isotype antibody served as its control; also called R2C9-11 mAb
Consider B2, for which the binding result with R2-IgD4-5 was “no binding (tested: 20 (unit not printed on the sheet))”; with R3-IgD7 it was “no binding (tested: 10 (unit not printed on the sheet))”; in assay [1], “no binding (tested: 10 (unit not printed on the sheet))”; in the assay with R3-IgD4 it was “no binding (tested: 10 (unit not printed on the sheet))”.

(Values after patent US20210032353A1 (NATIONAL HEALTH RESEARCH INSTITUTES, published 2021).)
